Reference: patent US20240383984A1 (Genentech, published 2024)
Where a chain is given by its changes, count along the chain named.

T1: human FcRH5 protein fragment (soluble) (human, UniProt Q96RD9 16-851)
T1 construct: whole entry named; also called soluble human FcRH5; Human FcRH5 (BIACORE analyte)
T1 sequence: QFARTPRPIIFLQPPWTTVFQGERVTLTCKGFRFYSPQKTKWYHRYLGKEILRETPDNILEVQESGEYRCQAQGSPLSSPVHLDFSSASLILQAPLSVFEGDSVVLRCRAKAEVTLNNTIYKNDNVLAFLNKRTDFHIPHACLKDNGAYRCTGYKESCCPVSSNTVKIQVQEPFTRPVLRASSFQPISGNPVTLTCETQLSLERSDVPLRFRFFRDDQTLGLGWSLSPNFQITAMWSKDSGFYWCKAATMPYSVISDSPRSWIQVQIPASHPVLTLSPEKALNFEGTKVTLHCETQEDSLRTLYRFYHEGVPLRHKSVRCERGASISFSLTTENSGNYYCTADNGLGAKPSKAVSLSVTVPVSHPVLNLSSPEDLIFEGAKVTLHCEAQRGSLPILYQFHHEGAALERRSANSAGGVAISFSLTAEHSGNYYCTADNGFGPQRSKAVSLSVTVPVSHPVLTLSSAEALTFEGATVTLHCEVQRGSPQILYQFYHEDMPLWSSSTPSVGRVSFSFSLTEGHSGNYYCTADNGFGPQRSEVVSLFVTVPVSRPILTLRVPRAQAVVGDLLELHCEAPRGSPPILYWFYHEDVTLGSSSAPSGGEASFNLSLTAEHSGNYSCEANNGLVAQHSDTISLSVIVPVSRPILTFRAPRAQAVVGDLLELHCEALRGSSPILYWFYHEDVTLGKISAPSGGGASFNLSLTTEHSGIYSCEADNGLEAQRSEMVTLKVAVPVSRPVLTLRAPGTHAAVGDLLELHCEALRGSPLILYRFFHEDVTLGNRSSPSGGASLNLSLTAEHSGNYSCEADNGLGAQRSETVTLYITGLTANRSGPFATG

T2: cynomolgus FcRH5 protein fragment (soluble) (cynomolgus monkey)
T2 construct: whole entry named; also called Cyno FcRH5 (BIACORE analyte)
T2 chain: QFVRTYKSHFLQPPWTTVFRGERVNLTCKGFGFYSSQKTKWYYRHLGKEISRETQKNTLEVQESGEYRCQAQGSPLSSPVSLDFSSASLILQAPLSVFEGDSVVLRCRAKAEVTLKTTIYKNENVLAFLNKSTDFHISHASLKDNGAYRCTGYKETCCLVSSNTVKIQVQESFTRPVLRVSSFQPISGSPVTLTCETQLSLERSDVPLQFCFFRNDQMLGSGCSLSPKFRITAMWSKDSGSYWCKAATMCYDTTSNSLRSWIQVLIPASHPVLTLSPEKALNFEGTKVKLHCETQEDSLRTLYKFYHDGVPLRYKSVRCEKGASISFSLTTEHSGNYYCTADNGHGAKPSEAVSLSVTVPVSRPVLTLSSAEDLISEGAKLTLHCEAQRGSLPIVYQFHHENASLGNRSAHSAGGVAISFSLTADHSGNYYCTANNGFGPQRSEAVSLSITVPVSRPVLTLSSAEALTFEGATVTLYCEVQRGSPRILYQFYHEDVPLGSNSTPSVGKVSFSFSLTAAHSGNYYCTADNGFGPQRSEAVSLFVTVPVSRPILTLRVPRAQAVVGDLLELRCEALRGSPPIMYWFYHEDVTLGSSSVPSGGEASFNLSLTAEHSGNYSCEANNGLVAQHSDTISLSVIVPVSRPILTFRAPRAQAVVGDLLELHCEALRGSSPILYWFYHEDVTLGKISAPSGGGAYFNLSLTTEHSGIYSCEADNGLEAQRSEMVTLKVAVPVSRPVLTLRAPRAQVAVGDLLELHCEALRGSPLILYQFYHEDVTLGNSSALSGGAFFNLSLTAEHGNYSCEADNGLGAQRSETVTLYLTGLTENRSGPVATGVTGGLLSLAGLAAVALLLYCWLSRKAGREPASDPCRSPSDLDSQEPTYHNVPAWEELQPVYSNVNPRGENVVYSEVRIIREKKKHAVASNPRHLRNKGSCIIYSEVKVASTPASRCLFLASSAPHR

T3: human FcRH2 (full-length, on SVT2 cells) (human, UniProt Q96LA5 20-508)
T3 construct: whole, on cells; also called SVT2-FcRH2
T3 sequence (looked up): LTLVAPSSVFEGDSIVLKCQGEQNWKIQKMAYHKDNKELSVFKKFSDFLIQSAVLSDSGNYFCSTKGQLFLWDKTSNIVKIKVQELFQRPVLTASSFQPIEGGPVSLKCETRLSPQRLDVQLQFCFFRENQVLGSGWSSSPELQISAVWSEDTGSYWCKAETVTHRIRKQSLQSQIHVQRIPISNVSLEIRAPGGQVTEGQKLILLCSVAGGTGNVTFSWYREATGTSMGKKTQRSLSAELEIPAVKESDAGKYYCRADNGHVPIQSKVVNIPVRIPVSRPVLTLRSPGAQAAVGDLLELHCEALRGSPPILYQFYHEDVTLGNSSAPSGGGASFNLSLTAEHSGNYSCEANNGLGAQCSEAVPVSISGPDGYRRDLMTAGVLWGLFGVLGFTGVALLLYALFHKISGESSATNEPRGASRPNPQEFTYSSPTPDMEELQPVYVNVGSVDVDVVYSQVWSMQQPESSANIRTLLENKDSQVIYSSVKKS

B1: hu1G7.v1.4/38E4.v1 TDB (bispecific antibody, V domains shown)
VH 1: EVQLVESGPGLVKPSETLSLTCTVSGFSLTRFGVHWVRQPPGKGLEWLGVIWRGGSTDYNAAFMSRLTISKDNSKNQVSLKLSSVTAADTAVYYCSNHYYGSSDYALDNWGQGTLVTVSS
VL 1: DIQMTQSPSSLSASVGDRVTITCKASQDVRNLVVWFQQKPGKAPKLLIYSGSYRYSGVPSRFSGSGSGTDFTLTISSLQPEDFATYYCQQHYSPPYTFGQGTKVEIK
VH 2: EVQLVQSGAEVKKPGASVKVSCKASGFTFTSYYIHWVRQAPGQGLEWIGWIYPENDNTKYNEKFKDRVTITADTSTSTAYLELSSLRSEDTAVYYCARDGYSRYYFDYWGQGTLVTVSS
VL 2: DIVMTQSPDSLAVSLGERATINCKSSQSLLNSRTRKNYLAWYQQKPGQSPKLLIYWTSTRKSGVPDRFSGSGSGTDFTLTISSLQAEDVAVYYCKQSFILRTFGQGTKVEIK
notes: knob-into-hole TDB; also called 1G7.v1.4 TDB; 1G7.v1.4 (TDB format)
B2: 1G7.v85/38E4.v1 TDB (bispecific antibody, V domains shown)
VH 1: B1 VH 1 with M64V
VL 1: B1 VL 1
VH 2: B1 VH 2
VL 2: B1 VL 2
notes: knob-into-hole TDB; also called 1G7.v85 TDB; 1G7.v85 (TDB format)
B3: 17B1 (antibody, mouse IgG2a, V domains shown)
VH: QVQLQQSGPELVRPGVSVKISCKGSGYTFTHYAMHWVKQSHTKSLEWIGMISSSSGNTNFNQKFMDKATMTVDKSSTTAYLELARLTFGDSAIYYCARWSYYALFDYWGQGTTVTVSS
VL: ENVLTQSPAIMSASPGEKVTMTCSADSSVDYIHWYQQKSNTSPKLWIYDTSKLASGVPGRFSGSGSGNSYSLTISSMEAEDFATYYCFQGSGYPLTFGSGTKLELK
notes: mouse mAb, Campaign C; recombinant murine IgG2a for SPR
B4: 15G8 (antibody, mouse IgG2a, V domains shown)
VH: EVQLQQSGPELVKPGASVKMSCKASGYTFTNYVIHWMKQKPGQGLEWIGYISPYNDYTKYNEKFEGKATLTSDKSSNTAYMELSSLTSEDSAVYYCARRDYYGSSDYWGQGTTLTVSS
VL: QIVLTQSPAIMSASPGEKVTMTCSASSSVDYMHWYQQKSGTSPKKWIYDTSKLASGVPARFSGSGSGTSYSLTIGSMEAEDAATYYCQQWSSNPPTFGGGTKLEIK
notes: mouse mAb, Campaign C; recombinant murine IgG2a for SPR; also called mAb 15G8

Tests used:
[1] = target: T1, human FcRH5 protein fragment (soluble); experiment: SPR, hIgG capture, 1:1 model
Method: (§1) Briefly, a human IgG capture surface was generated on a Series S CM5 chip using amine coupling and the human IgG capture kit (GE Life Sciences, Piscataway, NJ). Test antibodies were then captured on flow cells 2, 3, or 4, with flow cell 1 used as a reference. An FcRH5 protein fragment was used as the analyte, with a flow rate of […]. Between injections the capture surface was regenerated by a 30-second injection of 3M magnesium chloride or 10 mM glycine, pH 1.5. Interactions were assessed at 25° C. in 10 mM HEPES pH7.4, 150 mM NaCl, and 0.05% Tween 20 (HBSP). Reference data from the reference flow cell and from injection of buffer alone were subtracted prior to kinetic analysis. Kinetic information was calculated by fitting data to a 1:1 binding model. Reference subtraction and data fitting were performed using BIAevaluation software (GE Life Sciences, Piscataway, NJ).
(§2) Kinetic characterization experiments were carried out (see Table 8). In these experiments, binding of soluble FcRH5 protein fragment to purified antibodies in human TDB antibody format was analyzed at six different non-zero concentrations (a 1:3 dilution series, one concentration injected twice as a replicate). Flow rate was set at 40 μl/min and association and dissociation monitored for 600 s.

[2] = target: T2, cynomolgus FcRH5 protein fragment …; experiment: SPR, hIgG capture, 1:1 model
Method: as §1, §2

[3] = target: T3, human FcRH2 (full-length, on SVT2 cells); experiment: FACS, SVT2 cells

Binder | Kd [1] [nM] | koff [1] [s⁻¹] | kon [1] [M⁻¹ s⁻¹] | Kd [2] [nM] | koff [2] [s⁻¹] | kon [2] [M⁻¹ s⁻¹] | binding result [3]
B1 | 2.4 | 0.001 | 500000 | 6.3 | 0.0008 | 100000 | –
B2 | 2.4 | 0.001 | 400000 | 6.8 | 0.0008 | 100000 | –
B3 | – | – | – | – | – | – | no binding
B4 | – | – | – | – | – | – | no binding
